Consider two substances from patent US6689362.

Assay [1] deals with CD7 antigen (human) (UniProt P09564). Nature of the assay: indirect immunofluorescence, flow cytometry on MOLT-3 cells.
The target is the same in assay [2]. Nature of the assay: indirect immunofluorescence, flow cytometry on Jurkat cells. Background: In flow cytometry, cells or beads pass a laser one at a time.
The target is the same in assay [3]. The assay is described as follows: cell-based or functional assay.
Assay [4] shares this target. The assay is described as follows: indirect immunofluorescence with FITC goat anti-mouse IgG on MOLT-3 cells, 10 µg/mL (50 nM) TXU-PAP.

TXU-7-PAP immunotoxin, sequence (P10297 23-285): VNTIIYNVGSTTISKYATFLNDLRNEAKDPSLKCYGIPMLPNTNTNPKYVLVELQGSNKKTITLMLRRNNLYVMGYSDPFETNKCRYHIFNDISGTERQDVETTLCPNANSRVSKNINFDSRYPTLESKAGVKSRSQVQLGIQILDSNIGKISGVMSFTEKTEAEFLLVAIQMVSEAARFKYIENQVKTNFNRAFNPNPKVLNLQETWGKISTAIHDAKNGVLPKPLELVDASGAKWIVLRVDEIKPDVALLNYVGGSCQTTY

On to monoclonal antibody TXU-7, for which the percent of cells stained came out at 99% in the assay with CD7 antigen (human) [1] and 96% with CD7 antigen (human) [2].
Turning to “TXU-7-PAP immunotoxin (from UniProt P10297 23-285)”, in the assay with CD7 antigen (human) [3], the log kill of clonogenic MOLT-3 blasts, serial dilution clonogenic assay, at 1 µg/mL (=5 nM) was 2.8 to 3.7 logs. Further, in the assay with CD7 antigen (human) [4], the percent of cells positive for cell-surface bound immunotoxin is 98%.
